Laboratory results published in patent publication US20190083587A1 (Novo Nordisk, published 2019).

T1: hTLT-1 ECD-HPC4 S119A (human, UniProt Q86YW5 16-162)
T1 construct: Built as m17; also called Ala mutant 33
T1 chain: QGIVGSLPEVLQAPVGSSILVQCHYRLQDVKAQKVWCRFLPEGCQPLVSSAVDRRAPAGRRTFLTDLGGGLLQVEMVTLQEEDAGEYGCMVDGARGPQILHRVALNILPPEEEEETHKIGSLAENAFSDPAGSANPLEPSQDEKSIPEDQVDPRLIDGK

T2: hTLT-1 ECD-HPC4 F54A (human, UniProt Q86YW5 16-162)
T2 construct: Built as m17; also called Ala mutant 12
T2 chain: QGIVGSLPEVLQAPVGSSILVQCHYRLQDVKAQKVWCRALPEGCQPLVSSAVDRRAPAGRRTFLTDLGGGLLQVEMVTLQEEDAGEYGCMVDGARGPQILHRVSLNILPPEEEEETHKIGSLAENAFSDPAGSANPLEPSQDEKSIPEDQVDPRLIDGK

T3: hTLT-1 ECD-HPC4 R117A (human, UniProt Q86YW5 16-162)
T3 construct: Built as m17; also called Ala mutant 32
T3 chain: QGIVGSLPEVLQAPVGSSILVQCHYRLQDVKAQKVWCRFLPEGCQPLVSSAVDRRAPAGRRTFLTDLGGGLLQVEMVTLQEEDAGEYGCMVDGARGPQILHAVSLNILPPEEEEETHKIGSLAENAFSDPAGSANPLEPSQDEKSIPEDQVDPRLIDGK

T4: hTLT-1 ECD-HPC4 M91A (human, UniProt Q86YW5 16-162)
T4 construct: Built as m17; also called Ala mutant 24
T4 chain: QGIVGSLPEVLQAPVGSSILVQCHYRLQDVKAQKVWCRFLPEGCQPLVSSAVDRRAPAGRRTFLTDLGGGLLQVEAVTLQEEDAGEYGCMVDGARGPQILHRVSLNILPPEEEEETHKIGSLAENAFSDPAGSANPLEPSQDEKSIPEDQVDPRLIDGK

T5: hTLT-1 ECD-His (human, UniProt Q86YW5 16-162)
T5 construct: Extracellular domain of human TLT-1 with C-terminal His-6 tag; the range 16-168 is computed from these; also called TLT-1-His; His tagged human TLT1
T5 sequence: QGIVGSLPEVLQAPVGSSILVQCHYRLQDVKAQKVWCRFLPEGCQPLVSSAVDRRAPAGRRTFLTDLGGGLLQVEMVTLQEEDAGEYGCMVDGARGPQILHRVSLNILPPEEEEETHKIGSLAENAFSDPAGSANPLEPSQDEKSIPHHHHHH

T6: human TLT-1 on activated platelets (human, UniProt Q86YW5 16-311)
T6 sequence: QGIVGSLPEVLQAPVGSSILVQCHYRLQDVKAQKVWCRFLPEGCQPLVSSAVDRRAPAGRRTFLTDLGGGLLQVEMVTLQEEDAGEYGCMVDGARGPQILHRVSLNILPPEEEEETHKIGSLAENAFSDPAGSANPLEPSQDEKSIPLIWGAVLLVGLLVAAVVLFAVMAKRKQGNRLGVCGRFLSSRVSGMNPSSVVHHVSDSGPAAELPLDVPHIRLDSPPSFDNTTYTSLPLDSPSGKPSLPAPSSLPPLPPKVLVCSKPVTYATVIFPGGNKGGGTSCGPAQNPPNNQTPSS

B1: mAb0051 (antibody, V domains shown)
VH: QVQLEQSGAELVRPGVSVKISCKGSGYTFTDYSMHWVKQSHAKSLEWIGVISTYYGDVRYNQKFKGKATMTVDKSSSTAYMALARLTSEDSAIYYCARAPMITTGAWFAYWGQGTLVTVSA
VL: SIVMTQTPKFLLVSAGDRVTITCKASQSVSNDVAWYQQKPGQSPKLLINYASSRYTGIPDRFTGSGYGTDFTFTISTVQAEDLAVYFCQQDYSSPYTFGGGTKLEIER
notes: Mouse VH/VL, human IgG4 / kappa; The entries seem to include signal peptides; also called antiTLT-1 0051mab
B2: FVIIa-Fab1001 (other)
heavy: EVKLLESGGGLVQPGGSLKLSCAASGFDFSRYWMTWVRQAPGKGLEWIGEINPDSSTINYNPSLKDKFIISRDNAKNTLYLQMSEVRSEDTALYYCASGVFTSWGQGTLVTVSAASTKGPSVFPLAPCSRSTSESTAALGCLVKDYFPEPVTVSWNSGALTSGVHTFPAVLQSSGLYSLSSVVTVPSSSLGTKTYTCNVDHKPSNTKVDKRVESKYGPPC
light: DVVMTQTPLSLPVSLGDQASISCRSSQSLVHRNGNTYFHWALQKPGQSPKLLIYKVSNRFSGVPDRFSGSGSGTDFTLKISRVEAEDLGVYFCSQSTHVPYTFGGGTKLEIKRTVAAPSVFIFPPSDEQLKSGTASVVCLLNNFYPREAKVQWKVDNALQSGNSQESVTEQDSKDSTYSLSSTLTLSKADYEKHKVYACEVTHQGLSSPVTKSFNRGECEDQVDPRLIDGK
chain: ANAFLEELRPGSLERECKEEQCSFEEAREIFKDAERTKLFWISYSDGDQCASSPCQNGGSCKDQLQSYICFCLPAFEGRNCETHKDDQLICVNENGGCEQYCSDHTGTKRSCRCHEGYSLLADGVSCTPTVEYPCGKIPILEKRNASKPQGRIVGGKVCPKGECPWQVLLLVNGAQLCGGTLINTIWVVSAAHCFDKIKNWRNLIAVLGEHDLSEHDGDEQSRRVAQVIIPSTYVPGTTNHDIALLRLHQPVVLTDHVVPLCLPERTFSERTLAFVRFSLVSGWGQLLDRGATALELMVLNVPRLMTQDCLQQSRKVGDSPNITEYMFCAGYSDGSKDSCKGDSGGPHATHYRGTWYLTGIVSWGQGCATVGHFGVYTRVSQYIEWLQKLMRSEPRPGVLLRAPFP
modifications: linker attached as sialic acid derivative to an N-linked glycan (ST3Gal-III); gamma-carboxylated Glu in the Gla domain; unpaired hinge Cys (YGPPC) coupled by maleimide to the 3 kDa PEG linker
B3: FVIIa-Fab1029 (other)
heavy: EVKLLESGGGLVQPGGSLKLSCAASGFDFSRYWMTWVRQAPGKGLEWIGEINPDSSTINYNPSLKDKFIISRDNAKNTLYLQMSEVRSEDTALYYCASGVFTSWGQGTLVTVSAASTKGPSVFPLAPCSRSTSESTAALGCLVKDYFPEPVTVSWNSGALTSGVHTFPAVLQSSGLYSLSSVVTVPSSSLGTKTYTCNVDHKPSNTKVDKRVESKYGPPC
light: DVVMTQTPLSLPVSLGDQASISCRSSQSLVHRNGNTYFHWALQKPGQSPKLLIYKVSNRFSGVPDRFSGSGSGTDFTLKISRVEAEDLGVYFCSQSTHVPYTFGGGTKLEIKRTVAAPSVFIFPPSDEQLKSGTASVVCLLNNFYPREAKVQWKVDNALQSGNSQESVTEQDSKDSTYSLSSTLTLSKADYEKHKVYACEVTHQGLSSPVTKSFNRGECEDQVDPRLIDGK
chain: ANAFLEELRPGSLERECKEEQCSFEEAREIFKDAERTKLFWISYSDGDQCASSPCQNGGSCKDQLQSYICFCLPAFEGRNCETHKDDQLICVNENGGCEQYCSDHTGTKRSCRCHEGYSLLADGVSCTPTVEYPCGKIPILEKRNASKPQGRIVGGKVCPKGECPWQVLLLVNGAQLCGGTLINTIWVVSAAHCFDKIKNWRNLIAVLGEHDLSEHDGDEQSRRVAQVIIPSTYVPGTTNHDIALLRLHQPVVLTDHVVPLCLPERTFSERTLAFVRFSLVSGWGQLLDRGATALELMVLNVPRLMTQDCLQQSRKVGDSPNITEYMFCAGYSDGSKDSCKGDSGGPHATHYRGTWYLTGIVSWGQGCATVGHFGVYTRVSQYIEWLQKLMRSEPRPGVLLRAPFP
modifications: linker attached as sialic acid derivative to an N-linked glycan (ST3Gal-III); gamma-carboxylated Glu in the Gla domain; unpaired hinge Cys (YGPPC) coupled by maleimide to the 10 kDa PEG linker

Legend:
hTLT-1 ECD-HPC4 S119A = biological target: T1, hTLT-1 ECD-HPC4 S119A; test: SPR ProteOn, mAb captured by anti-hFc, 100 nM mutant, signal 10 s after injection
Description: (§1) Each antibody was diluted in 10 mM sodium acetate pH 5.0 to a concentration of 50 μg/ml, and was immobilized to an individual flow cell at 30 μl/min for 240 s. The antibodies were immobilized to flow cells A1-A6 (horizontal direction). After immobilization, the active sites on the flow cell were blocked with 1 M ethanolamine. The final immobilization level of capture antibody typically ranged from approximately 9,000 to 10,000 RU in one experiment. Capture of the anti-TLT-1 antibodies mAb0023, mAb0051, mAb0061 and mAb0062 was conducted by diluting to 0.5 μg/ml into HBS-EP buffer (10 mM HEPES, 150 mM NaCl, 3 mM EDTA, 0.05% surfactant P20, pH 7.4) and injected at 30 μl/min for 60 s in vertical direction, creating interspot reference points with only anti-human Fc antibodies.
(§2) The final capture level of test antibodies typically ranged from approximately 200 to 300 RU in one experiment. Binding of wt or Ala mutant hTLT-1 ECD-HPC4 protein was conducted by injecting over parallel flow cells in horizontal direction to allow for comparative analyses of binding to different captured anti-TLT-1 antibodies relative to binding to the interspot references. Each hTLT-1 ECD-HPC4 protein was diluted to 100 nM, based on the calculated average Mw, into HBS-EP buffer and injected at 30 μl/min for 240 s. The GLM chip was regenerated after each injection cycle of analyte via one 18 s injection of 1 M Formic acid followed by a 18s injection of 50 mM NaOH at 100 μl/min. This regeneration step removed the anti-TLT-1 antibody and any bound TLT-1 from the immobilized capture antibody surface, and allowed for the subsequent binding of the next test sample pair.
(§3) Data analysis was performed using the ProteOn Manager™ Software. No significant non-specific binding to the interspot control surfaces was observed. Binding curves were processed by double referencing (subtraction of interspot control surface signals as well as blank buffer injections over captured anti-TLT-1 antibodies). This allowed correction for instrument noise, bulk shift and drift during sample injections. Binding signal at 10 s after stop of analyte injection was normalized to level of captured anti-TLT-1 antibody and presented as binding relative to wt hTLT-1 ECD-HPC4 protein.

hTLT-1 ECD-HPC4 F54A = biological target: T2, hTLT-1 ECD-HPC4 F54A; test: as above
Description: as §1, §2, §3

hTLT-1 ECD-HPC4 R117A = biological target: T3, hTLT-1 ECD-HPC4 R117A; test: as above
Description: as §1, §2, §3

hTLT-1 ECD-HPC4 M91A = biological target: T4, hTLT-1 ECD-HPC4 M91A; test: as above
Description: as §1, §2, §3

hTLT-1 ECD-His = biological target: T5, hTLT-1 ECD-His; test: SPR Biacore, mAb immobilised directly, TLT-1 as analyte
Description: Method: The mAbs of interest were either immobilized directly to a CM5 chip or by capture via a human Fc capture mAb immobilized to a CM5 chip, while TLT-1-His was immobilized by capture via an anti-His mAb CM5 chip for analysis of Fabs.
mAb direct capture: The TLT-1 mAbs were immobilised to a level of approx 500-1000 RU on a CM5 chip (50 μg/ml diluted in Na-acetate, pH 4.0) using the standard procedure recommended by the supplier. Two-fold dilutions of TLT-1 from 200 nM to 0.2 nM were tested for binding to the mAbs. Running and dilution buffer: 10 mM HEPES, 150 mM, 0.005% p20, pH 7.4. Regeneration was obtained by 10 mM Glycine, pH 1.7. mAb capture via human Fc mAb: Human Fc mAb was immobilised to approx 10.000 RU. The mAb of interest was added (approx 100 nM). Two-fold dilutions of TLT-1 from 200 nM to 0.2 nM were tested. Running and dilution buffer: 10 mM HEPES, 150 mM, 0.005% p20, pH 7.4. Regeneration was obtained in 3 M MgCl₂.

[1] = biological target: T6, human TLT-1 on activated platelets; test: cell-based or functional assay

| Binder | binding relative to wt hTLT-1 ECD-HPC4 (hTLT-1 ECD-HPC4 S119A) | binding relative to wt hTLT-1 ECD-HPC4 (hTLT-1 ECD-HPC4 F54A) | binding relative to wt hTLT-1 ECD-HPC4 (hTLT-1 ECD-HPC4 R117A) | binding relative to wt hTLT-1 ECD-HPC4 (hTLT-1 ECD-HPC4 M91A) | Kd (hTLT-1 ECD-His) | koff (hTLT-1 ECD-His) | kon (hTLT-1 ECD-His) | peak thrombin generation at 25 nM, haemophilia A like platelet rich plasma [1] |
| --- | --- | --- | --- | --- | --- | --- | --- | --- |
| B1 | < 0.6 fraction of wt | < 0.4 fraction of wt | < 0.2 fraction of wt | < 0.2 fraction of wt | 19.3 nM | 0.00472 s⁻¹ | 245000 M⁻¹ s⁻¹ |  |
| B2 |  |  |  |  |  |  |  | ~4 fold compared to rFVIIa (25 nM) |
| B3 |  |  |  |  |  |  |  | ~2 fold compared to rFVIIa (25 nM) |
